Test results reported in the DeepSol protein solubility set.

experiment: soluble on expression in E. coli; label from the status in PepcDB or PDB records

Row | Sequence | soluble on expression in E. coli
1 | MISAAPYRDRVVHHALYNIIVPIFERTFISDSYANRVGFGSHRALRRFTQFSRSSHYVFQADIRKYFPSIDHKILKHLIYRKIKCPDTLWLINTIIDNSNFQEPVINYFPGDNLLAPLERRCGLPIGNLTSQFFANVYLNNFDHFVKEQLQAFKYIRYVDDFALFSDDKAFLETARVIIEEYLTSLRLKIHPIKSQLFETKHGANFVGFRILPNQIRVRSDNLRLGRKRLRQMLRDYDEGKIDAQHLTQSTQSWVAHLKHGDTWQLRQRIFSSSIFDLAMLILEHHHHHH | soluble
2 | MISAHVWADAQRLWDFQQMGHEPHPCSVAIGLGSHDLGVAETTAELYHRGMAPVIVFTGATSRTTHERMPRGEAEHYRERAVELGVPERAILVEPNARNTGENIRLSRALLEDLGMPVTSVLLVSKPYEERRAYATARKLWPNVEWVCVSTSMTLPDYVKSIGDARLVIDMLVGAQQRLMVYPRQGFMIKQEIPEPIMTAYEHLRGHGFTSRLVPETAEQTLEHHHHHH | soluble
3 | MISCSEEGSNKILVAISLDRDESQNVLSWAINVLAKPSDTVVALHLLVGEEPRKLPMKKKKRTQIRHAKAHVISMLGEFAYTCCHNQVNLEAKVGFSSNIGRGLIDEVKSISAHYLVLSRPTTHEFR | soluble
4 | MISDSKLLASAAWDAQSLNELKAKASEDPAANIRPVARQVEGMFVQMMLKSMRDALPKDGLFSSEHTRLYTSMYDQQIAQQMTAGKGLGLAEMMVKQMTPEQPLPEESTPAAPMKFPLETVVRYQNQTLSQLVQKAVPRNYDDSLPGDSRAFLAQLSLPAQLASQQSGVPHHLILAQAALESGWGQRQIRRENGEPSYNLFGVKASGNWKGQVTEITTTEYENGEAKKVKAKFRVYSSYLEALSDYVGLLTRNPRYAAVTTAASAEQGAQVLQDAGYATDPHYARKLTNMIQQMKSISDKVSKTYSMNIDNLF | not soluble
5 | MITAEKKKKNKFLPNFDKQSIYSLRFDEMQNWLVEQGQQKFRAKQIFEWLYQKRVDSIDEMTNLSKDLRQLLKDNFTVTTLTTVVKQESKDGTIKFLYELQDGYTIETVLMRHDYGNSVCVTTQVGCRIGCTFCASTLGGLKRNLEAGEIVSQVLTVQKALDATEERVSQIVIMGIGEPFENYDEMMDFLRIVNDDNSLNIGARHITVSTSGIIPRIYDFADEDIQINFAVSLHAAKDEVRSRLMPINRAYNVEKLIEAIQYYQEKTNRRVTFEYGLFGGVNDQLEHARELAHLIKGLNCHVNLIPVNHVPERNYVKTAKNDIFKFEKELKRLGINATIRREQGSDIDAACGQLRAKERQVETRLEHHHHHH | not soluble
6 | MITELRPNPYQPRKHFNKEAIQELSASIKEHGILQPLIARKSIKGYEIVAGERRYRAAKEAGLEKVPAVVRQLNEQQMMEFALLENLQREDLNPMEEAMAYQMLMNELNVTQEQLAKCLGKSRPYIANYTRLLSLPSFVQDMIANGQLSMAHGRTLLTIKDEEQLKSLLKRIEKEGLNVRQLEKIVQEINQSVSRETKQVKKERNIFFIERETFLREKFGTDVKIKETKKEKGKIEIEFFNKEDLNRILELLAQKN | not soluble
7 | MITIEKYSPERHEQTCELSVLEEQSQFTVADVGEMLTRLEPTELPHLILADDDVVGFFLFDAAYSEKYDFCPKNSLGVRALLVDHRHQGKGIAKQAIQQFADFAKHHYPEFDALYLTVNCRNIPAYQCYLKSGFEDTNELYHGGPVGPQHIMRQPL | not soluble
8 | MITILGAGKVGMATAVMLMMRGYDDLLLIARTPGKPQGEALDLAHAAAELGVDIRISGSNSYEDMRGSDIVLVTAGIGRKPGMTREQLLEANANTMADLAEKIKAYAKDAIVVITTNPVDAMTYVMYKKTGFPRERVIGFSGILDSARMAYYISQKLGVSFKSVNAIVLGMHGQKMFPVPRLSSVGGVPLEHLMSKEEIEEVVSETVNAGAKITELRGYSSNYGPAAGLVLTVEAIKRDSKRIYPYSLYLQGEYGYNDIVAEVPAVIGKSGIERIIELPLTEDEKRKFDEAVQAVKKLVETLPPQLRE | soluble
9 | MITIRNKIGQMLIMGFHGSELHDNSPVAQWLSNDGLGGVLLFDKDLSTGIYGKNLRNQAQIKQLIRQLNRYASMISGGNDNLPLFTAIDYEGGVVDRLSKIEGCPPTMKARELAKLSSDDFDEEVTQMAMTLQSLGFNLNFAPVVDLNLNAHAGIIGNLGRSFSSNPEVTIRLAKQFVDVFSRYGIACAYKHFPGHGSATGDTHEGFVDVTETFQTDELIPYRSLLKDLSNPFMVMTAHVINKHLDSKGLPATLSYDVLTLLLRQSIGYDGVIISDDLQMHAISNHYSLEDALCLTINAGADMVIFANQLGTITPPEVIDVIEKLVIDKQIPYQRIDEAYRRIVRLKQQIICSELINT | not soluble
10 | MITLTKKQMEEMLAHARQALPNEACGLLGGRRDGDDRWVERVYPLNNLDQSPEHFSMDPREQLTAVKDMRKNGWVMLGNFHSHPATPARPSAEDKRLAFDPSLSYLIISLAEPQKPVCKSFLIKKDGVDEEEIILKEELEHHHHHH | soluble
11 | MITPKVLSGFKDRLPKDAIQKAQLLAKVSVVFQSFGFVPIETPHLEYAQTLLPDASSDIQKEIYRFKDHGDRDVALRFDLTVPLARFVSLHHQTLGMPFKRYAIGNVFRGERAQKGRYREFTQCDFDFIGSESLVCDAEIIQVIVASLKALDLEDFCVSINHRKILNGICEYFGISQVNEALRIVDKLEKIGLNGVEEELKKECGLNSNTIKELLELIQIKQNDLSHAEFFEKIAYLKDYNENLKKGIQDLERLYQLLGDLQISQNLYKIDFSIARGLGYYTGIVYETTLNEMKSLGSVCSGGRYDHLTKNFSKENLQGVGASIGIDRLIVALSEMQLLDERSTQAKVLIACMHEEYFSYANRLAESLRQSGIFSEVYPEAQKIKKPFSYANHKGHEFVAVIGEEEFKSETLSLKNMHSGMQLNCLSFLKALEIIGENDEDL | not soluble
12 | MITQGPNLIGIHANEKENIETKKFVNWFLNQSITDWNSNNQQKNSDQTTKTAAEYFTDQASYILPLKEKFNKSSDLELKGSSSSSNLTTSSASASLLISNNSSTASSPAPKKTNNNSNTFTAKALELFQQAANNEIIPFSDPSDFRNGTFRNNISSSFNAAVNSK | soluble
13 | MIVGSHQQYVVPSYSAAYVPSAYAYPSVYSPYVAAAAYPSVWAWGSNKNKDDAAPRAFARPSALLNNQKPTTA | not soluble
14 | MIVIEGSDKFKIAKEYIDVEYTLFSKVTFRYEKLKFKDNAELEKIKMFKYKNGYIPNKLNLSFGYGFSSYKKQIIRETVDTLRLTEIFSSENIEDIKFIKDGTKKLEISIEKVVKFKRRKKRNYVCCYCPDMYRDIKLDKESINKIYNRKIKIEREVNIFEDEDVIINKKVLKFPKSWTKNMQKYWLSENKYPIHSTVIDDDRYKCCNVQYTKNRVIILYYIYNH | not soluble
15 | MIVLGIESSCDETGLAIYDYSKKKLIADELYSQVKLHKKYGGVVPELASREHIAKLNLLAKKIFKETGLSFEDIDCIAYTAMPGLVGALMVGATFAKTLGLIHNIDTIAVHHLEGHLLSPLLDHNSNIEYPFVALLVSGGHTQLFEVKEFGEYSLLGESIDDAAGEAFDKTTKLLGMGYPGGVEVANLADQATDKSKYILPRPMKNKPNLDFSFSGLKTAVLNTWYDEQDQSLENKANLCYAFQDAAIDVLVSKCAKALQKTKNTRLVISGGVSANKLLRHQLDLLAKNRGYQIFFPPMKYCTDNGAMIALAGAYRYVNGFKDSNLEINVKARSPL | soluble
16 | MIVPKGNENIRPGYAMEPKYITIHETANTSKGANALNHAKYLDNQARGNTDRSASWHFTVDDKEIYQHLPLNEVGWHAGNKTGNYESIGIEIAVNSDGNYTKAVENAKKLAAYLMNELNISLDHVQKHQFWSGKNCPAFMIQRGQWDAFLKGTNAYYNEHHKDVIPPPEVPHEKDDITGGWYEQDIRQLAARKIMFGDGNGSYWPNRLVTRAEFANLMSRALNLPAGNAKFTDLNEAHPSLVDGINRAASAGIINGRGNNKFDPNATITRDEAVIMIDRALEYNWIYRKEVKLPFTDQHLAYDKKALQNVYAYGIVKGNERNEFVPKGTATRAESAAFLNRMLKVIEA | not soluble
17 | MIYNKTINGLKVFIKDNDPFYEQVLNDFLTCRVKTLKVFRSIDDTKVILIDTARGPLVLKVYAPKHKMTERFLKSCIKKDYYENLIYQTDRVRGEGIQSINDYFLLAERKTLNFAHYYIMLIEYIEGVGLNEYLEISEDLKDQLSESIKELHQHGMVSGDPHKGNFIVSEKGLRLIDLSGKKTTAVLKAKDRIDLERHYNIKNELKDFGYTYLIFKKKIKKVIRDVKVKLGLKSKLEHHHHHH | not soluble
18 | MIYQKQRNTAETQLNISISDDQSPSHINTGVGFLNHMLTLFTFHSGLSLNIEAQGDIDVDDHHVTEDIGIVIGQLLLEMIKDKKHFVRYGTMYIPMDETLARVVVDISGRPYLSFNASLSKEKVGTFDTELVEEFFRAVVINARLTTHIDLIRGGNTHHEIEAIFKAFSRALGIALTATDDQRVPSSKGVIE | soluble
19 | MKAIAGLTVNIKQGEFVYVVGPSGAGKSTFIKMMYREEKPSTGSINVNGLVIETLAERDVPYFRRQLGVIFQDFKLLPKLTVYENVAFALEVIEEEPDAIRERVTEVLGLVGLEDRADALPSELSGGEQQRVAIARAIVNKPKVVIADEPTGNLDIETALDIMKIFTRINERGTTIVMATHNADIVNTIRHRVIAIEGGKIVRDEIEGGYGYEG | not soluble
20 | MKAKLKQLRRLVESSFPEIENFHEKVDASFEKLENAKSFWSEIYVAHLKVVGDGVKVPESVFIKVPRISENVLRCEDESAVNHLNDVLLYYSKKENLFYKHFEYGSIPNFPFPKVYFTEDINGEATGGIVAENLSEKVFAVEHIPGLKHEQILRLMEALAGLHSFLMKRDDKSYVESFVEGAHGRETFSEGMQNMMFEEALTLENVSPEVFGNDRIRNIKWSFDYSIKNKATADAISAFPGIICHADLNVTNVLWKKDSAKDEISAIIDYQMLFIGSIAFDIIRVLTLGLNREIRRKMTQNYLDHYHKTLTELSNGKAPFSMEELLHQYSLIYPFSSNFSLFGIALYIKMYSDGTLGNPEDKEENCKELIDRALGIVEDIEALKNNYK | not soluble
21 | MKAKPLSQDPGSKRYAYRINKEENRKELKHVKINESSLVQEGQKIDLPKKRYYRQRAHSNPFSDHQLEYPVSPQDMDWSKLYPYYKNAENGQMTKKVTIADIGCGFGGLMIDLSPAFPEDLILGMEIRVQVTNYVEDRIIALRNNTASKHGFQNINVLRGNAMKFLPNFFEKGQLSKMFFCFPDPHFKQRKHKARIITNTLLSEYAYVLKEGGVVYTITDVKDLHEWMVKHLEEHPLFERLSKEWEENDECVKIMRNATEEGKKVERKKGDKFVACFTRLPTPAIL | soluble
22 | MKALALFSGGLDSLLSMKLIQEMGIEVVALHFNIGFGANRDKLEYLQNATAQIGVELRVLDIQEQFFNEVLFNPVHGYGKYFNPCIDCHANMFRHALRLLEGEGASFIISGEVIGQRPKSQRREALHQVENLTQTKGLILRPLSAKLLPPTLAEERGWVDREKLLDIHGRGRDRQLAMAKSYGWVYFE | not soluble
23 | MKALERTVTVKGLAEKEVKANIAIWPINFTEVDNNLPKLYETVQLKTDKVVAFLKERGFSDSEITISLPSIEDRQAQGYVDPNVKYRYSAKVNLSVYTSQIDLMLSSRKQMINLVKEGIAIASQDYENRTEFLFTQLNDVKPTMVQEATQNAREVAEKFAKDSESRLGKIKSASQGQFTISDRDSSTPYIKQIRIVSTLTYYLNDLEHHHHHH | not soluble
24 | MKAMHVAQPAVVLASSRGIASFVCEYASPGKATEVRVTVLRQADSQVTEVCAATYMMGNELTFLDDSICTGTSSGNQVNLTIQGLRAMDTGLYICKVELMYPPPYYLGIGNGTQIYVIDPEPSPDSDLVPR | soluble
